In paper PMC3909728:

System: eVP35 IID WT (Ebola virus (EBOV))
Experiment: filter binding

dsRNA
binding signal (fraction bound): < 0.3
